The text below walks through data of PMC4671958.

In this assay the target is DNA polymerase theta helicase domain (Polθ-HLD), residues 1–894 (human), O75417. As to the kind of experiment: crystal structure; apo protein, 3.55 Å, four copies in the asymmetric unit; crystallized in 0.2 M NaCl, 0.1 M HEPES (pH 7.0), 20% PEG 6K, 10% ethylene glycol. The settings on record: remark: other sources report otherwise.

B1: DNA polymerase theta helicase domain (Polθ-HLD), residues 1–894, O75417 1-894 (domain or fragment)
chain: MNLLRRSGKRRRSESGSDSFSGSGGDSSASPQFLSGSVLSPPPGLGRCLKAAAAGECKPTVPDYERDKLLLANWGLPKAVLEKYHSFGVKKMFEWQAECLLLGQVLEGKNLVYSAPTSAGKTLVAELLILKRVLEMRKKALFILPFVSVAKEKKYYLQSLFQEVGIKVDGYMGSTSPSRHFSSLDIAVCTIERANGLINRLIEENKMDLLGMVVVDELHMLGDSHRGYLLELLLTKICYITRKSASCQADLASSLSNAVQIVGMSATLPNLELVASWLNAELYHTDFRPVPLLESVKVGNSIYDSSMKLVREFEPMLQVKGDEDHVVSLCYETICDNHSVLLFCPSKKWCEKLADIIAREFYNLHHQAEGLVKPSECPPVILEQKELLEVMDQLRRLPSGLDSVLQKTVPWGVAFHHAGLTFEERDIIEGAFRQGLIRVLAATSTLSSGVNLPARRVIIRTPIFGGRPLDILTYKQMVGRAGRKGVDTVGESILICKNSEKSKGIALLQGSLKPVRSCLQRREGEEVTGSMIRAILEIIVGGVASTSQDMHTYAACTFLAASMKEGKQGIQRNQESVQLGAIEACVMWLLENEFIQSTEASDGTEGKVYHPTHLGSATLSSSLSPADTLDIFADLQRAMKGFVLENDLHILYLVTPMFEDWTTIDWYRFFCLWEKLPTSMKRVAELVGVEEGFLARCVKGKVVARTERQHRQMAIHKRFFTSLVLLDLISEVPLREINQKYGCNRGQIQSLQQSAAVYAGMITVFSNRLGWHNMELLLSQFQKRLTFGIQRELCDLVRVSLLNAQRARVLYASGFHTVADLARANIVEVEVILKNAVPFKSARKAVDEEEEAVEERRNMRTIWVTGRKGLTEREAAALIVEEARMILQQDLVEM
On to B1, for which the stoichiometry N (as a rule, the number of molecules, sites or subunits per partner or assembly) came out at 4.
